Assay results from article PMC5344305.

Biological target: adaptor protein-2 (AP-2)
Assay: pull-down (IP with AP-2 antibody, western blot densitometry)
Conditions: HEK-293 cells transfected with GFP-V0a1 constructs; n=4; parent: est. 1.0; read off a plot

- ratio to parent (arbitrary unit): 0.37
Substance: WT GFP-V0a1 (from UniProt Q93050) C25S
